{
  "source": "a protein production outcome set (Wang et al. 2014)",
  "data": [
    {"experiment": "label from the status in PepcDB records", "values": [
      {"sequence": "MNYPAENFTKRFLSSLAQVMLQSNTVTGFLFLVGIGLNSPTMLLGCILAILSSLAVAKLFQYDSNCVTKGFYGFNAALVGIAVFSLLPLSFISLVLVLLGGAFSALLMHVMITKIPSIPALTTPFILSTWTIVLIIDSVGLADPMSGSFTGSISPTLIDSLHGVLRGVGQVMLQDSWLSGAVFCCALLFSSYKTAVWAILGSLIGLLVATTFGFSQEKAMMGLYGFNGCLVAIALVDRYPNKYWLIILAILFSVLFTRVFEMIAIPAFTAPFVMTTWLMIGIVKLKADFD", "protein production": "failed"},
      {"sequence": "MNYPKAILLSLALLAMHSLNAEVVTYPAGVGVKTLNDFSVEVRQGSGPWLPVDVYPVKVDRVDEKGHNVEVASIAYFDFDGMVDVRVISNKERVNSVRVRPLSYKITPDCVGDTVTFSLSRPRNLSVEVNGDIFHNLHLFANPIDKFRPSDKEIQRALKKKKGSNLIYFGPGVHNLPNDTLFVPSGTTVYIDGGARVYGNIFTEGAHDVNIFGRGEVHPDGRGAGVWVRRSKNVRIDGIVVSQLPIGQCDSVELTNVKSISYYGWGDGMDVFSSSNVILDGVFCRNSDDCAAVYASTQGFKGGSNNVLVKNATLWADVAHPINIGGHGDPNGMDTVQNVTFRNIDILDQAEKQIDYQGCLAINPGDNTLVRNITFENIRIEDFRNGQLVNFRISFNPKYCVSTGRGIQNVLVKDVTYNGSGENLSIIAGYDENHKISGIRFVNLVVNGRKITDDMPGKPKWYKTGDMAGIFVGEHVENLSFE", "protein production": "failed"},
      {"sequence": "MNYQLFKHSDENASYVVFSSGLGGHGSFWQAQLDVFRQYFHVLIYDQEGCHASSELLADGYSFEHLALQVKQLLQQLNIVRFHFIGHALGGFIGIELAHRYASETCQLLSLTLINAWQQLDPHTLRCFTTRIALLQHAGTAAYLHAQALFLYPPLWISEHTALLEQQEAKMQSDFPPHANVLKRLNALMQYQVNTARIDTLKQLPVCLIANQDDMLVPYVQSLNLWKKLPDAQLKLLPYGGHASTVTEARQVNQLMLDFLK", "protein production": "failed"},
      {"sequence": "MPAIGSAPDGSRVSFMPKAWLLLALLLLLSLPARAEEWPALQWSQGTPASGPALQALEEYAFVPRDDESRQGIRTDALLVIRDGRLLYERYAGATGPQTPHLAWSASKSLLAVLLGVAFGEGRFQLQDPAAKFYPPLEAHPDITLADLLHWASGLDWQEDYEYAPLNSSVVAMLYTRGHRDMAAFTVQQAASGPPGQVFRYSSGDSNLLAASLRGMVGEGQYADYPWRALFEPLGITQAVWERDAAGTFVASSYLYLTARDLARIGLLMQRDGRWRDRQLLPKAWVEFCRTPFRGYRANQDVAVAGGHWWLNREVDGAPRPWPDAPADTYAALGHWGQALYVLPAQRLVIVRYGDDRDGSYQHNELLKRVLAAFATPEQP", "protein production": "failed"},
      {"sequence": "MPAKVLINGYGSIGKRVADAVSMQDDMEVIGVTKTKPDFEARLAVEKGYKLFVAIPDNERVKLFEDAGIPVEGTILDIIEDADIVVDGAPKKIGKQNLENIYKPHKVKAILQGGEKAKDVEDNFNALWSYNRCYGKDYVRVVSCNTTGLCRILYAINSIADIKKARIVLVRRAADPNDDKTGPVNAITPNPVTVPSHHGPDVVSVVPEFEGKILTSAVIVPTTLMHMHTLMVEVDGDVSRDDILEAIKKTPRIITVRAEDGFSSTAKIIEYGRDLGRLRYDINELVVWEESINVLENEIFLMQAVHQESIVIPENIDCIRAMLQMEEDNFKSIEKTNKAMGIQ", "protein production": "not failed"},
      {"sequence": "MPATPSLKVVHELPACTLCAGPLEDAVTVPCGHTFCRLCLPALSQMGAQSSGKILLCPLCQEEEQAETPMAPVPLGPLGETYCEEHGEKIYFFCENDAEFLCTSECRTTDGFGCA", "protein production": "failed"},
      {"sequence": "MPCRGLHAIPAGPPEFPELATIYVVCGDKLNVMIDAGVTNSIMDSSFLEKLDLVILTHIHIDHIGLLPEILDRYKNAKVMIKNGFKKFLTTEDGVRRLNESSEKVLGDLYYIYGEFTKIDPDKVVEVEGGEMIDIGDGKTLKIIYTPGHAKHHISVVSDDILFTGDSGGAYFNGAVIPTTPPPLDYDNYVNSLRLQISLKPKVVGLAHGGLVSPNILEQHLDQMLGKESFDIGEIDIGGIGGEILRKQVEVNLRGLNEALGRNKKTLLEHHHHHH", "protein production": "failed"},
      {"sequence": "MPDLTRRNFSNLLSFPMPDTRPAKAGGQPRPFFRLGVVRFGLATALALFWVGAFASTATGQRTSRTPDQLENVGVDQKLGATIPKDLSFQNEQGEPVRLSQYFDGSTPVMLTLNYHRCPQLCRIQLQKFTKSLSGMSWTAGDKFKVLTVDISPYEGPKMARKAQERYATFLDRPEETVDGWHFLTGNQAAIETLTDSVGFRYQPLPEKEKQFAHPTTIIFLSGDGTITRYFTTLDPAPGDLRTALVEASDGTVGNVVDKAFLACARFNPDSNSYSASAFKLMQYGSVLTVIVMGAALFVFWRRENEQLETAHEEGLNAMVDEQA", "protein production": "failed"},
      {"sequence": "MPDNEVDLLFAQLSPEDLIEWSDYLPESFTDRALAQMGERQRQRFELYDQYSENEIGRYTDHQMLVLSDKATVAQAQRFFRRIELDCNDNLFIVDEADKYLGTVRRYDIFKHEPHEPLISLLSEDSRALTANTTLLDAAEAIEHSREIELPVIDDAGELIGRVTLRAATALVREHYEAQLMATAGMDESDDLFAPILKGAQRRAVWLGINLLTAFLASATIGLFENVLSQVVALAVLMPIVASMGGIAGSQSLTLMIRGMAMGQISAGNLFSLMKNELGIGLVNGTLWAIVIGLVAGWWFADSIIGIVIGCAILINMAVAALAGVFVPMIL", "protein production": "failed"},
      {"sequence": "MPDWVTGTWLLALDWAIRLAALLWIPARTTPGAARSWLLLIGFVPVVGLPLYLLFGHPWLSRLRVERQATASQVIREQQLPLHALRWMPQADTSSAEVVPLIEREGDFMPTLGNAVELLDDYAQSLQALIAAIDAADKRVHLLYYLMFDDAVGEAVVVALERASARGVRCRVLLDAVGAKRGLRRYRKRLQDGGVQVLAVLPGGLRWRRSGRMDLRNHRKIAVLDNRVAFVGSQNLAEAGFIDGVPNRELVARVRGPVVNHLEAVFASDWFTETGERLDVWPDAPVCEANIATQLLPSGPAYPFENARDAINAVIHLARRKVVLVTPYFVPDEALLSALRIAPVSGVDVQLILSEHNNQRLAAWAQEAYFEELLRCGVKIALYRPHFLHAKHLSMDEDIALVGSINLDIRSFALNAEIGMLCYDTGVVQRLREIEQDYLANARQLTLEQWRRRPAWRRSREGIARLADALM", "protein production": "failed"},
      {"sequence": "MPDYGHDLLFGAVLTPDAQNPRAVLESARLADRSGLDLVSVPDHPYRPDFLDAWTLLSVIAAHTERVRVFPNVANLPLRPPAGLARAAAALDVLSGGRVELGLGAGGYWDAIAGEGQPRRTPGEAVEALAEAIDVIRALWASGGAGATVDGTHYRLDGARPGPPAAHPLGIWVGALGPRMLRLIGRTADGWLPSATRVPPAELAVGQRIVDEAAIAAGRDPRAVRRLYNLP", "protein production": "failed"},
      {"sequence": "MPEAGLAQLVPLTAVALLAGVVDAIAGGGGLLTLPALLWTGLPPHLALGTNKGQSVFGSFAALVRFSRAGMVDGRRARLTFPLGLAGSLAGAGLVLLVPPATLRPVVLALLAFAALFVGLRRGPPARPDGGPRPAAPVVAGAIALAIGAYDGFFGPGTGTFLIVAFVALLGDGLAHASAGAKVVNFASNLAAVTLFSIKGVVVWRIAVPMAVAQLAGGWIGAHLAVRRGDALVRRTAVLVTLALAVKLAWDMRS", "protein production": "failed"},
      {"sequence": "MPERIIREDVKIGDGMMIDSDSQDDCVTKAVRTVEQKLTTEEHEIVMVYDYVSGSSGSSSTPSFTLTPYSPISYESDQEDYEDPPISPYISEAVVHSPDSTFALLWEGTSPILHFAADMRADAIPSVGDGTTSGIHIPYCFIYGEDGRYPQDCRF", "protein production": "failed"},
      {"sequence": "MPEVEDMPSIALHSVMASPNAEYVRWKAHGDFISQLNYYDSMKAVISSSNHEPTALVIGFTVGATDVKEKLNEIRNVGKNVMMGSSSASLALAKRQAECNRTVFRVHKGVKAFSFCRKKNLLATGGLDRIVRVWNPYLPGKPTGVLRGHMAPVMYVHVASEENKVFSVSADNTVKIWDLETHSCCCTVSSKASGIKGELTACLYLPGPRALCVATGTLALFHLKAGSVPEPHLLRSHQEPVVCCRYNPAFRQVVSCCEASVVKVWDLETGRWVSEFIGNAGITCLAFDSSGRRLVTGGRDGDLKIWSYNNGHCLHTLQHDENQNEVCDCTYMEVNRNGCVIAVGWDRRINVYFDIPRDFHHFRKPQPHWQDDLNHGHKEDILCVAQCPPFLLATSSYDGEIIVWNVISGHMYCKLNTPSPMDPREGPDRSVSRLTFLKTRLTKLDSTAASLISNGPGGSVSFWKLFSGSGLIANFTPAREKAQVSGIVVTSGDTVAYLADQHGFIYVYDIQEYGLWGAELQPPNSTHSWEVESQKHSFLKTFDVSEGAGKGLSSSLDCTVRLCSKDGAYIGTFGQNRPWDVYTPDSWGHPRVPLEILTDPQSMPTHLVLETDVPAGCSGGRQEQGHMTEEKVLFETEKTHNPPSPEGPVVEVEVKADKSQWSAFSHDRLLLSSKTLMQDKRLLSARRKPCWKVPELKWPSIYQALQCHELDFVSALREKPDLSVTGFDLLPDYRFPRGPTEYRQCSAELLFRSLPHAAHISSVPQAPAKLWGHKQN", "protein production": "failed"},
      {"sequence": "MPEWAVILSICGLYLVLVLGLGVWSGRTVSASVDGYVAGDRTLGVIVLYFVLGASVFSSFAFLGAPGWAYSRGAAAFYIIAYGTVGMVPFYFLGPRARQVGEAFGFVTQAEMLAHRYDSRTLSVVLAALSVVAFVPYLTLQMKGAGLLLSTISDGVVPQWLGALAAYGVVLVYVFASGMMAIGWTNTVQGLFMMAVAWFLGLYLPETLHGGIQPMFEAIAASDKAAMLDVPGLAADGSPWSWAGYSSAVIVSAVGFSMWPHLFMRAFTAKSDRTLKLTVVLYPTFQLFLVPILLIGFAGVLAFPGVAPPDTIVPHLLTQIELSPVLVGLVCAGALAASMSSGDAILHAAASIGLRDGIKPLLAAPMTDTRQRQWIRGLVVATSATAYYFAVFSEVGIVALLLGAYGGVAQIFPLVFAAFYWPRATGAGALAGLLAGIGVNTLFLVAPHLRPFPLHEGVYGLAANIAVFLTVSLLTPPHDRDRLRAYTHSDRLAADETVAS", "protein production": "failed"},
      {"sequence": "MPFATNGAPYYEQLVMQIKQQIVQEVLRPGDQLPSIRAMASEMHLNPNTVSKAYQILEHQRAVYTVKGRGTFVSESSQIATDSNAVDDLQTRLQSLLTEAQFLGISAQQVQAWVTTAYQKGESRDEYPS", "protein production": "failed"},
      {"sequence": "MPFHGDAQENTWPNSRASPMSLASKLPRFRWLLPAFVVLVGVVLTIVMHWDDRAGLWWKESQASQQQRDESIWLPGYRVVIDAKPLQGLEEEETSDLAYNPATRTLFTVTGKRPLLVELSLTGDVLRTIPLLGLSNPEGVAVLENGNVAVTDERRNTLTIFHVDPQTAELSTKSLAEFPLGNIGKKNKGFEGIAWDPRQQRLLLSKERDPMTLFSWKSDGGPSLSGAMTALPSDDLYMRNVSALSVDPRTGHTLVLSAESHLLLELDEKGEPVSFISLLGGFNGLDSKIPRAEGVAIDDEGTIYMVSEPNLFYVFRKKSGERLATSDADLEHHHHHH", "protein production": "failed"},
      {"sequence": "MPFRTPNIANMTDKKFLPQLDENLPTDVFFHYFFLEAKTETLSHSHPWGQLHLIKQGRLEMEVDKQKMFCPANYAIWTPAHLLHRAFNHNDVEYCAINIEFELSQKLPTSACMFPLTPLLRAIVDDLVERQTTEVLSTEDKYLSHVLIERLSKTNPIENYLPFTDDKLLAPILMQLQENPADDSSLEIWAKRVFSTERTLARRFQKELKMSFNDWRQRAKLAKAMVLLKDAISINEIAYQLGYSQGSSFIKMFRKHTGVTPEQFRKEQQGK", "protein production": "failed"},
      {"sequence": "MPGAEKGPQPRRPDFTEAGVIQNRAAGRNRSPDPSPDGAQARRRSWRNQGAWLSFVAWPHRRGSATVEPPPLTLRQQLTTVRWLLTGLFAMMLLVFLYFGRDVLMPIVLALLLALMLSPIVRLLRRRKVPEGVAAVVVTLGFAAGMLLIGFTISGPVATWLEDAPSIGKRIAHKLSSLRESFDVVLDASRQVEEAADTSSKDNTDRVVMAQPGLLVKAADSLASGFTTFGVTIVITLFFLASGSMFTEKIVHVMPLFRDKLRVLRVVRDIETEVSSYLLTVAMINAGLGVAVGCALWLAGMPNAFLWGGMAMVLNFLPYIGSMIGISLVALVSFVTFDSLGQALIPPLSYLAVTSVEGQFLTPAIVGRRLELNALSVMLAVLFWAWLWGIVGALIAVPLLVVVKVVCSHFEGLAVVGEFLSARRPFSDQVKDGA", "protein production": "failed"}
    ]}
  ]
}
